Data on two sequences can be found in PMC12197088.

The target of data set [1] is nucleolin (NCL), cell surface of MCF-7 (UniProt P19338). The experiment in a line: flow cytometry. The following applies: intact MCF-7 cells (apparent cellular Kd); Dulbecco's PBS with CaCl2 and MgCl2, 4.5 g/L glucose, 5 mM MgCl2, 0.1 mg/mL yeast tRNA, 1 mg/mL BSA; on ice 30 min; pH not stated. (In general: A flow cytometer gives signals particle by particle.)
Data set [2] deals with nucleolin (NCL), cell surface of MCF-7;IGFIIR, cell surface of MCF-7 (UniProt P19338+P11717). The experiment in a line: flow cytometry. The following applies: intact MCF-7 cells (apparent cellular Kd); Dulbecco's PBS with CaCl2 and MgCl2, 4.5 g/L glucose, 5 mM MgCl2, 0.1 mg/mL yeast tRNA, 1 mg/mL BSA; on ice 30 min; pH not stated.
Sequence of nucleolin (NCL), cell surface of MCF-7;IGFIIR, cell surface of MCF-7 (P19338 2-710, chain 1 of 2): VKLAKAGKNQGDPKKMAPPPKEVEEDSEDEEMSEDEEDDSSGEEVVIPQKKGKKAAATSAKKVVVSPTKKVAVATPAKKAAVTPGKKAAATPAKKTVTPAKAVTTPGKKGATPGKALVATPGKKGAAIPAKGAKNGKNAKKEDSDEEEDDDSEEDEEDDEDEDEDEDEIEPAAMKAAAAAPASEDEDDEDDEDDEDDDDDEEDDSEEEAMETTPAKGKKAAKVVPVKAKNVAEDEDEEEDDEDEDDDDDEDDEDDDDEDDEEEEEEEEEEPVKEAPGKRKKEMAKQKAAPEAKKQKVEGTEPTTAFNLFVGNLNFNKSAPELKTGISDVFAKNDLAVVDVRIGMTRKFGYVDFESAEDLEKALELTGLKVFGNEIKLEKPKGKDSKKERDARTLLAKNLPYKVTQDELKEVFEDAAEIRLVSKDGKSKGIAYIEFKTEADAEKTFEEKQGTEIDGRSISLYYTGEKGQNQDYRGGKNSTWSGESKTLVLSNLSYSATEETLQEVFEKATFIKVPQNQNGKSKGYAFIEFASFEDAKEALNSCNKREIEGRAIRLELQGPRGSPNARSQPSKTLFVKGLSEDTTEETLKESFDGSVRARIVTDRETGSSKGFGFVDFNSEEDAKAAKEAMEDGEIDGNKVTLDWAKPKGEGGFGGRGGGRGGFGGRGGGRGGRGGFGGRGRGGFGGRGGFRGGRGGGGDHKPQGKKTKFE
Sequence of nucleolin (NCL), cell surface of MCF-7;IGFIIR, cell surface of MCF-7 (P11717 41-2491, chain 2 of 2): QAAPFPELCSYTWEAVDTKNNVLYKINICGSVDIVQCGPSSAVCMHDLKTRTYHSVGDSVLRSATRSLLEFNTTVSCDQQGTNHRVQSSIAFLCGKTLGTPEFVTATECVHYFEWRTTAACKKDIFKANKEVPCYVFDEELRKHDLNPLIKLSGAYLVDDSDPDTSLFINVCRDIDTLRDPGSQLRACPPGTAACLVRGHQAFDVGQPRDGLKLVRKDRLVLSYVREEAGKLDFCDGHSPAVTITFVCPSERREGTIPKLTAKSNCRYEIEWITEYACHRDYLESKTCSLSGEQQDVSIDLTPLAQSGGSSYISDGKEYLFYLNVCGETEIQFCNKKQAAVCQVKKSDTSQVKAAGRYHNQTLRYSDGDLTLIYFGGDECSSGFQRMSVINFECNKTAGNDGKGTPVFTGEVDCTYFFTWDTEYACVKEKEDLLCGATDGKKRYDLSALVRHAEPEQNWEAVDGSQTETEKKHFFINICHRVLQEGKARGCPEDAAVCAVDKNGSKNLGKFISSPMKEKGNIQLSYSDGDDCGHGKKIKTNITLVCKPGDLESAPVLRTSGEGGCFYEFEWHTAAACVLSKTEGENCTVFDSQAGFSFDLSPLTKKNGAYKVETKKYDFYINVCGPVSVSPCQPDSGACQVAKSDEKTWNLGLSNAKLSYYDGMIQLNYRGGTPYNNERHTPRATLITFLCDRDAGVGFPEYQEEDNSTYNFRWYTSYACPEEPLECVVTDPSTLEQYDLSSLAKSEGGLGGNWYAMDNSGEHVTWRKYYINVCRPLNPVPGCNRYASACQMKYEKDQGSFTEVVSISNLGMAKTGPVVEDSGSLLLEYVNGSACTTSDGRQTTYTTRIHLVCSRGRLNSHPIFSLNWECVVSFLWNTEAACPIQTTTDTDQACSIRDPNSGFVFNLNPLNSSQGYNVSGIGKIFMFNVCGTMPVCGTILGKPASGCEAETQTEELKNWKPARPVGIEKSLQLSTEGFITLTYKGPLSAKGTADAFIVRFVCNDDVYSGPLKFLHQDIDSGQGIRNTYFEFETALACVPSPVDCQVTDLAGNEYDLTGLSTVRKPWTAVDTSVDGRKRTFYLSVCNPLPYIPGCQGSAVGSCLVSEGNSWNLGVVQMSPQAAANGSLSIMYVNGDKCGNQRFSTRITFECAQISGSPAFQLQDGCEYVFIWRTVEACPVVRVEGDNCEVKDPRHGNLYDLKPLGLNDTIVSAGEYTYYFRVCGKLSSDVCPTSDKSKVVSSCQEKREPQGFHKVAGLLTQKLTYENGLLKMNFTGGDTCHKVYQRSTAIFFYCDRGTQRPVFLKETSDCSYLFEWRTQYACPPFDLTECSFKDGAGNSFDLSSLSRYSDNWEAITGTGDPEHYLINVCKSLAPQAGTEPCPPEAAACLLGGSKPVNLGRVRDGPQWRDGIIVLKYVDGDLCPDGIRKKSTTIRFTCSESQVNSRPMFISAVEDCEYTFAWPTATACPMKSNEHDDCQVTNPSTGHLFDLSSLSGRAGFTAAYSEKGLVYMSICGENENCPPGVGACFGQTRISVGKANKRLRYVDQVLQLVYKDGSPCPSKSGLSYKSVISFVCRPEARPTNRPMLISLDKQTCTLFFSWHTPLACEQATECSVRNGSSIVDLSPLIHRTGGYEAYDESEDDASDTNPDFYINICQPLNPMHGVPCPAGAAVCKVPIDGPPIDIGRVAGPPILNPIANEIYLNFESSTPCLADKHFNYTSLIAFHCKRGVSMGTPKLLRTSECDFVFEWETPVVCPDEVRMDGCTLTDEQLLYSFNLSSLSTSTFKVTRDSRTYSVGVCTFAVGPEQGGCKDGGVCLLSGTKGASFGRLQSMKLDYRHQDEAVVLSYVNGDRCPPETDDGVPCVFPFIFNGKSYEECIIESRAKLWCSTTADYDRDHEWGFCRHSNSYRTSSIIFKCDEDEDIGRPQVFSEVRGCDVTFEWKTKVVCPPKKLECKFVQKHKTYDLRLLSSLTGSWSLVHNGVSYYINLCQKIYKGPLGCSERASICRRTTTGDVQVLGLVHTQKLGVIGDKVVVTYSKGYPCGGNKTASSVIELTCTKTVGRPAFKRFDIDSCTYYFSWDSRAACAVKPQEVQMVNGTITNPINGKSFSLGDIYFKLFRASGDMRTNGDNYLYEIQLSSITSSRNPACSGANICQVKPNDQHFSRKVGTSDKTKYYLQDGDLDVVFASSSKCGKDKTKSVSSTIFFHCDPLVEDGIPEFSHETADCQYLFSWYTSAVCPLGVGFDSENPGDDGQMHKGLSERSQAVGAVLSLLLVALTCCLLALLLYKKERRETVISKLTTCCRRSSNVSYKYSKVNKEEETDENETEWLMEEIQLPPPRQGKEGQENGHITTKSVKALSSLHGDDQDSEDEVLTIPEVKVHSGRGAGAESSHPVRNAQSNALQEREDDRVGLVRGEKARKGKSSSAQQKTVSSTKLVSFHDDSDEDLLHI

Sequence of nucleolin (NCL), cell surface of MCF-7 (P19338 2-710): as the sequence (P19338 2-710, chain 1 of 2) above

With “GGTGGTGGTGGTTGTGGTGGTGGTGG [AS1411 (NCL aptamer)]”, the Kd in data set [1] was 0.137 µM.
Consider “TTTTTTTTTTTTTTTGGGCGCGTAGATGACGAGCAGTCCTAACATCGTTTAGGAC / AAAAAAAAAAAAAAAGGTGGTGGTGGTTGTGGTGGTGGTGG [Mo-AS (monovalent NCL/IGFIIR chimera)]”, for which the Kd in data set [2] turned out to be 0.517 µM.
